Results from PMC7484505, “Uncoupling sodium channel dimers restores the phenotype of a pain‐linked Nav1.7 channel mutation” (British Journal of Pharmacology, 2020).

Target: the molecule itself
Assay: native gel or EMSA; hrCN-PAGE of digitonin extracts of cRNA-injected X. laevis oocytes (0.1 M sodium phosphate pH 8.0, 1 mM TCEP), non-denaturing conditions; GFP tags visualised by fluorescence scanning; masses judged against hTrpV1-GFP

B1: hNav1.7^GFP (natural protein)
chain: not shown
notes: numbers count on: isoform 3; pCMV6-neo-hNav1.7, Klugbauer et al. 1995; also called hNav1.7/WT; source: X. laevis oocytes, cRNA injected, in detergent extract (cleared supernatant); not shown: GFP, C-terminal, kept
- stoichiometry N: 2

B2: hTRPV1^GFP (natural protein, human, UniProt Q8NER1-1 1-839, looked up)
chain: MKKWSSTDLGAAADPLQKDTCPDPLDGDPNSRPPPAKPQLSTAKSRTRLFGKGDSEEAFPVDCPHEEGELDSCPTITVSPVITIQRPGDGPTGARLLSQDSVAASTEKTLRLYDRRSIFEAVAQNNCQDLESLLLFLQKSKKHLTDNEFKDPETGKTCLLKAMLNLHDGQNTTIPLLLEIARQTDSLKELVNASYTDSYYKGQTALHIAIERRNMALVTLLVENGADVQAAAHGDFFKKTKGRPGFYFGELPLSLAACTNQLGIVKFLLQNSWQTADISARDSVGNTVLHALVEVADNTADNTKFVTSMYNEILMLGAKLHPTLKLEELTNKKGMTPLALAAGTGKIGVLAYILQREIQEPECRHLSRKFTEWAYGPVHSSLYDLSCIDTCEKNSVLEVIAYSSSETPNRHDMLLVEPLNRLLQDKWDRFVKRIFYFNFLVYCLYMIIFTMAAYYRPVDGLPPFKMEKTGDYFRVTGEILSVLGGVYFFFRGIQYFLQRRPSMKTLFVDSYSEMLFFLQSLFMLATVVLYFSHLKEYVASMVFSLALGWTNMLYYTRGFQQMGIYAVMIEKMILRDLCRFMFVYIVFLFGFSTAVVTLIEDGKNDSLPSESTSHRWRGPACRPPDSSYNSLYSTCLELFKFTIGMGDLEFTENYDFKAVFIILLLAYVILTYILLLNMLIALMGETVNKIAQESKNIWKLQRAITILDTEKSFLKCMRKAFRSGKLLQVGYTPDGKDDYRWCFRVDEVNWTTWNTNVGIINEDPGNCEGVKRTLSFSLRSSRVSGRHWKNFALVPLLREASARDRQSAQPEEVYLRQFSGSLKPEDAEVFKSPAASGEK
notes: human TRPV1, transcript variant 3, subcloned from pDONR201 into pNKS2; Used as mass marker on the native gel; calculated mass of the GFP-tagged protomer printed as 123 kDa; also called human TRPV1 (transient receptor potential cation channel subfamily V member 1); source: X. laevis oocytes, cRNA injected, in digitonin extract (cleared supernatant); not shown: GFP, C-terminal, kept
- stoichiometry N: 4
